The series can be described thus: protein stability index of a GFP-peptide fusion (yeast GPS) (PSI 1-4); higher = more stable; sorted into four equal gates, so the index is relative within each strain. The gist of the method:
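Mid-log yeast cultures in leucine-free medium, carrying a pooled plasmid library, were sorted into four equal gates by their GFP/Cherry fluorescence ratio. Each plasmid expressed Cherry along with GFP fused upstream of a tiled 17-residue yeast protein peptide. Plasmids recovered from each gate were PCR-amplified and Illumina-sequenced, with reads assigned to strains by barcodes. The protein stability index was obtained by summing each gate's read frequency weighted by its gate number.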

± gives the uncertainty stated by the source.

For the sequence DSKGSLYSVKFAPAHLG [YGL100W/SEH1], the protein stability index stood at 2.66 ± 0.11 (doa10∆), 3.05 ± 0.13 (pdr5∆), 2.59 ± 0.1 (san1∆) and 2.81 ± 0.062 (ubr1∆).

Take RLLAKDAMIAQRSKKIQ [DIS3]: the protein stability index came out at 1.24 ± 0.1 (doa10∆), 1.92 ± 0.091 (pdr5∆), 1.41 ± 0.072 (san1∆) and 1.59 ± 0.069 (ubr1∆).

As for ALVAGIERYPSKVTKKH [RPL27B], the protein stability index amounted to 1.86 ± 0.082 (doa10∆), 1.99 ± 0.063 (pdr5∆), 1.47 ± 0.12 (san1∆) and 1.96 ± 0.2 (ubr1∆).

RYVAGVQQRYTQSGGVR [PRE6]: under “doa10∆”, the protein stability index is 2.84 ± 0.23.

KSVYETPKITAAEKSFK [SEC65] registered a protein stability index (pdr5∆) of 2.08 ± 0.19 and a protein stability index (ubr1∆) of 1.53 ± 0.08.

Sequence WSTTGDNGELDLSGFNI [MED2] had a protein stability index (doa10∆) of 3.18 ± 0.09, a protein stability index (pdr5∆) of 3.19 ± 0.12, a protein stability index (san1∆) of 3.34 ± 0.076 and a protein stability index (ubr1∆) of 2.93 ± 0.097.

Regarding KKIMDETPSRLLLSPDQ [ITC1], the protein stability index came out at 3.04 ± 0.056 (doa10∆), 3.37 ± 0.065 (pdr5∆), 3.21 ± 0.078 (san1∆) and 3.33 ± 0.041 (ubr1∆).

Take SKKVTSGVPRLKEILNV [RPO21]: the protein stability index is, setting by setting: (doa10∆) 1.81 ± 0.1; (pdr5∆) 2.06 ± 0.12; (san1∆) 1.55 ± 0.23; (ubr1∆) 1.1 ± 0.083.

In turn, EDNAGVIANPKGEMKGS [RPL23A] displayed a protein stability index (doa10∆) of 1.82 ± 0.18, a protein stability index (pdr5∆) of 1.92 ± 0.056, a protein stability index (san1∆) of 2.28 ± 0.13 and a protein stability index (ubr1∆) of 1.85 ± 0.059.

In the case of EFNFTNLQAKPLVGKPK [YAR002W/NUP60], the protein stability index (doa10∆) came out at 2.1 ± 0.06, the protein stability index (pdr5∆) is 2.35 ± 0.055, the protein stability index (san1∆) was determined as 2.27 ± 0.077 and the protein stability index (ubr1∆) amounted to 2.25 ± 0.042.

For DRLSLQDRQQLLPLVVS [ECM29], the protein stability index by setting is: (doa10∆) 2 ± 0.051; (pdr5∆) 2.06 ± 0.044; (san1∆) 1.64 ± 0.08; (ubr1∆) 1.84 ± 0.037.

In the case of EKTGKSASLKKIQQHNT [BRR2], the protein stability index (pdr5∆) was 2.96 ± 0.2.

Turning to EHAKWGPAAAIEFEYDP [RPB3], the protein stability index is, setting by setting: (doa10∆) 2.54 ± 0.078; (pdr5∆) 3.01 ± 0.074; (san1∆) 2.36 ± 0.07; (ubr1∆) 3.09 ± 0.075.

Consider EHIKQDYVASLNELYQT [NSL1], for which the protein stability index (doa10∆) is 2.91 ± 0.062, the protein stability index (pdr5∆) stood at 3.1 ± 0.057, the protein stability index (san1∆) was found to be 2.84 ± 0.047 and the protein stability index (ubr1∆) is 2.88 ± 0.053.

Take GQQTAQPQQSTIGGGLF [YGR119C/NUP57]: the protein stability index reads like this: (doa10∆) 2.88 ± 0.072; (pdr5∆) 3.19 ± 0.052; (san1∆) 2.93 ± 0.053; (ubr1∆) 3.28 ± 0.067.

Consider YPLPKFPTTSHESLVTT [MED8], for which the protein stability index runs as follows: (doa10∆) 1.81 ± 0.056; (pdr5∆) 1.92 ± 0.06; (san1∆) 2.12 ± 0.08; (ubr1∆) 1.72 ± 0.063.

NLERLRSDLQSKIQEIE [YIL149C/MLP2] registered a protein stability index (doa10∆) of 3.08 ± 0.077, a protein stability index (pdr5∆) of 3.37 ± 0.076, a protein stability index (san1∆) of 3.49 ± 0.073 and a protein stability index (ubr1∆) of 3.33 ± 0.1.

As for DVAIENNTLSRYADAGN [RRP43], the protein stability index runs as follows: (doa10∆) 3.36 ± 0.045; (pdr5∆) 3.32 ± 0.048; (san1∆) 3.35 ± 0.035; (ubr1∆) 3.44 ± 0.041.

With QQIWKSPNFKNYLKYLE [SOH1], the protein stability index came out at 1.72 ± 0.047 (doa10∆), 1.91 ± 0.047 (pdr5∆), 1.61 ± 0.047 (san1∆) and 2.22 ± 0.062 (ubr1∆).

Regarding SSVNEDTFLPPPPPPPS [PRP8], the protein stability index (doa10∆) is 2.73 ± 0.041, the protein stability index (pdr5∆) was 2.72 ± 0.04, the protein stability index (san1∆) turned out to be 2.44 ± 0.038 and the protein stability index (ubr1∆) was found to be 2.46 ± 0.037.

With ETPKSNNSLSYHSGRLL [ITC1], the protein stability index is, setting by setting: (doa10∆) 3.22 ± 0.14; (pdr5∆) 3.06 ± 0.12; (san1∆) 2.63 ± 0.13; (ubr1∆) 3.32 ± 0.078.

Turning to NDEVNEDEEDDNISSFH [YCG1], the protein stability index is, setting by setting: (doa10∆) 3.18 ± 0.12; (pdr5∆) 3.28 ± 0.12; (san1∆) 3.31 ± 0.074; (ubr1∆) 3.33 ± 0.12.

For the sequence KERIVRAFLIEEQKIVK [RPL34B], under “ubr1∆”, the protein stability index amounted to 2.74 ± 0.12.

In turn, FLEKEKQLTLLRSKLFQ [SMC4] displayed a protein stability index (doa10∆) of 2.46 ± 0.094, a protein stability index (pdr5∆) of 1.99 ± 0.067, a protein stability index (san1∆) of 1.86 ± 0.12 and a protein stability index (ubr1∆) of 2.56 ± 0.043.

With YVDEQSKNELKKAFTSY [RPS16A], the protein stability index is, setting by setting: (doa10∆) 3.06 ± 0.059; (pdr5∆) 3.21 ± 0.044; (san1∆) 3.07 ± 0.051; (ubr1∆) 3.13 ± 0.052.

On to QIANEFNTQQGIKKHSL [YDL116W/NUP84], for which the protein stability index stood at 3.01 ± 0.055 (doa10∆), 3.3 ± 0.049 (pdr5∆), 3.18 ± 0.04 (san1∆) and 3.11 ± 0.038 (ubr1∆).

As to EDHVEDHRKRKKSKIQL [LIN1], the protein stability index is, setting by setting: (doa10∆) 3.17 ± 0.093; (pdr5∆) 3.25 ± 0.082; (san1∆) 3.12 ± 0.059; (ubr1∆) 3.16 ± 0.052.

For NLPKDKSGIPEFTPADP [SSN2], the protein stability index (doa10∆) is 2.99 ± 0.091, the protein stability index (pdr5∆) worked out at 3.12 ± 0.075, the protein stability index (san1∆) is 3.03 ± 0.076 and the protein stability index (ubr1∆) was found to be 3.47 ± 0.056.

Consider EVRQETQPKAEATQDDD [NUT1], for which the protein stability index (doa10∆) turned out to be 3.08 ± 0.13, the protein stability index (pdr5∆) amounted to 3.18 ± 0.071, the protein stability index (san1∆) turned out to be 3.4 ± 0.065 and the protein stability index (ubr1∆) came out at 3.16 ± 0.074.

Source of the values: the supplement of paper PMC9732359.
